Source: article PMC8451032

Target: m971 scFv with short (GGGGS) linker
Assay: SEC

Substance: m971 scFv with short (GGGGS) linker
- stoichiometry N: 2
